Test results as given in US6376240, “RFLAT-1: a transcription factor that activates RANTES gene expression” (Board of Trustees of the Leland Stanford Junior Unversity).

Each binder was assayed against T1, RFLAT-1 C-terminal portion (aa 59-288) (homo sapien, UniProt Q9Y2Y9 SEQ:59-288) (assay: EMSA; two retarded bands, possible oligomerization). Settings: tags: His6 (pET-28a); label: 32P.
Experimental: (§1) The wells were incubated in blocking buffer (5% goat serum, 5% horse serum, 0.1% Triton X-100 in PBS), washed in PBS supplemented with 0.1% Triton X-100, and incubated with antigen purified rabbit polyclonal anti-RFLAT-1 (1:500 [v/v]) or rabbit IgG (1:500 [v/v]) (Santa Cruz Biotechnology, Santa Cruz, Calif.). The wells were washed, incubated with goat anti-rabbit FITC (1:2000 [v/v]) (Caltag, Burlingame, Calif.), and anti-FITC Alexa™ 488 (1:2000 [v/v]) (Molecular Probes, Eugene, Oreg.). Finally, the slide was washed with PBS, covered with mounting media (1:3 [v/v], Vectashield with propidium iodide) (Vector, Burlingame, Calif.), cover slipped and sealed. EMSA and supershift assays were performed essentially as described by Ortiz et al., 1996, supra. Oligonucleotides were synthesized by Life Technologies, Inc. (Gaithersburg, Md.) and purified by a polyacrylamide-urea gel. Oligonucleotides were end-labeled using [γ-^32P] ATP and T4 polynucleotide kinase. The following oligonucleotides were used:
(§2) A carboxyl terminal portion of RFLAT-1, including the zinc finger DNA binding domain (nucleotides 550–1430), was isolated through expression cloning using an oligonucleotide probe containing three tandem A sites of the RANTES promoter.

T1 sequence (Q9Y2Y9 other isoform, or with tags, fused parts or gaps): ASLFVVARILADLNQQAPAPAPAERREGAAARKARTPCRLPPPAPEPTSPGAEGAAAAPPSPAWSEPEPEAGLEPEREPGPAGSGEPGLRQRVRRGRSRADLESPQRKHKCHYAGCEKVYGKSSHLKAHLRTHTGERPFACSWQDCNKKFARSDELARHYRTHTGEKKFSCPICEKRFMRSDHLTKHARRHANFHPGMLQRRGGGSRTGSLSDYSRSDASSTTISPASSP

| Binder | binding result |
| --- | --- |
| A/B probe (dsDNA) DNA 1: AATTCGCTATTTTGGAAACTCCCCTTAGGGGATGCCCCTCAACTGCG DNA 2: CGCAGTTGAGGGGCATCCCCTAAGGGGAGTTTCCAAAATAGCGAATT | binds |

These binders were tested against T1, RFLAT-1 C-terminal portion (aa 59-288) (assay: EMSA). Settings: tags: His6 (pET-28a); label: 32P.
Experimental: as §1, §2

| Binder | binding result |
| --- | --- |
| C probe (dsDNA) DNA 1: AATTCTCTAGATGAGAGAGCAGTGAGGGAGAGACG DNA 2: CGTCTCTCCCTCACTGCTCTCTCATCTAGAGAATT | no binding |
| B probe (dsDNA) DNA 1: AATTCGCTAGGGGATGCCCCTCAACTGCG DNA 2: CGCAGTTGAGGGGCATCCCCTAGCGAATT | no binding |
| kB probe (dsDNA) DNA 1: AATTCGTCAGAGGGGACTTTCCGAGAG DNA 2: CTCTCGGAAAGTCCCCTCTGACGAATT | no binding |
| E probe (dsDNA) DNA 1: AATTCTTTGTGCAATTTCACTTATGATACCG DNA 2: CGGTATCATAAGTGAAATTGCACAAAGAATT | no binding |
| A probe (dsDNA) DNA 1: AATTCGTTGCTATTTTGGAAACTCCCCTTG DNA 2: CAAGGGGAGTTTCCAAAATAGCAACGAATT | binds |
